As a reminder, the Tm is the temperature at which the thermal transition is half complete.

For the data set the following is noted: Hordeum vulgare, whole UniProt chain shown.
Setting [1] is: pH 3, Thermal, DSC, glycine-HCl 10 mM.
The mark [2] stands for this setting: pH 6.25, 25 °C, GdnHCl, Fluorescence, MES 50 mM.

B1: Subtilisin-chymotrypsin inhibitor-2A wild type, P01053 (protein)
chain: MSSVEKKPEGVNTGAGDRHNLKTEWPELVGKSVEEAKKVILQDKPEAQIIVLPVGTIVTMEYRIDRVRLFVDKLDNIAQVPRVG
For B1, under setting [1], the Tm came out at 63.8 °C and the “unfolding enthalpy (calorimetric)” value stood at 60 kcal/mol. In addition, under setting [2], the denaturant m value was found to be 1.9 kcal/mol/M, the “denaturant midpoint (higher = more stable)” value is 4 M and the unfolding free energy is 7.61 kcal/mol.

These data come from FireProtDB (doi:10.1093/protein/7.6.777).
